Laboratory results: patent US20100016434

Target: T1, biotinylated HIF1α peptide, Q16665
T1 chain: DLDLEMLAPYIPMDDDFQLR

B1: EGLN3 in vitro translate (protein)
chain: MPLGHIMRLDLEKIALEYIVPCLHEVGFCYLDNFLGEVVGDCVLERVKQLHCTGALRDGQLAGPRAGVSKRHLRGDQITWIGGNEEGCEAISFLLSLIDRLVLYCGSRLGKYYVKERSKAMVACYPGNGTGYVRHVDNPNGDGRCITCIYYLNKNWDAKLHGGILRIFPEGKSFIADVEPIFDRLLFFWSDRRNPHEVQPSYATRYAMTVWYFDAEERAEAKKKFRNLTRKTESALTED
EGLN3 prolyl hydroxylase activity on the HIF1α peptide, read by capture of 35S-labeled pVHL: EGLN3 hydroxylase activity was diminished in the face of increasing amount of succinate
